Reference: the domain aggregation screens of Martell et al. (2025)

Experiment: soluble fraction after stress (log2 fold change); higher = more stays soluble; pooled small domains, quantitative proteomics
Conditions: stress: 50 degC
Procedure, shortened: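 The stress applied to every library was 50°C. These custom libraries of small protein domains were pooled and measured at high throughput with quantitative proteomics as the read-out. Aggregation propensity is expressed as the base-two logarithm of the fold change in how much of each protein remains soluble. The higher the value, the more of that protein stays in solution.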

Row | Sequence | soluble fraction (log2)
1 | HMQSAEMTLDREGQPVQVRVELTGNEARITFLSDQEQTREALDAGMAQLRELLEQQGMVLAGVTV | -0.0108
2 | HMAISEAERARLQTKIKERNKMARWINTNLNPTSKIRNINPAETVRKLMTQDDADSLERSLDAFMEA | -0.0378
3 | HMTKLSPKEKSILHIIGDNAGIKSGQIAKRLDIPSPTVKRILSDLVSQNLIEKFGTGPGTNYSI | 0.0531
4 | HMKDHKSKWMAKTELDSIAKNLSKKHAISLDYEEDGTRFYAGGQSPLGIGRLFTVFVAPRNGHWSDQLR | 0.189
5 | HMNQEQQSAVMSALKATLPDLEAALEARQFKESKQLLKTAQNQFQQLDGRNRRGFQARIQLLAGQFRELS | -0.227
6 | HMVPADVQHLRDIVDTMTEKQQLVYKLHVLEGYTFTEIAKLMGTSIPNVKKHYDKAILFIKNNF | -0.909
7 | HMPKKLIWERTTSKLQLYITQDRYELKTPLMTIPFTSKSKMMVYLQQRYHLDMQEYRQIYDAG | -2.21
8 | HMKDLQHLVGEKGTTVTPLRPSGIALIKGSRYDVVSEGSFIQQGVAVEVIKVEGRRVVVSPLQED | -0.16
9 | HMGVRLAPEVDRIPYGQMHPNLKKVKDLYEASYKAYVQALSSGNQALAKEKLEEFQSTKARYQRALSAYT | 0.189
10 | HMNVNTHKTLILNSTFQPLSLATPQRALALLFSKKINVLKESDIKLRSVGQSVAIPKVAVLTYFVKA | -0.291
11 | HMNILNYIIENENQEVRVDKFLSDTIEDMSRSSVASIIEDGGLLVNDKLQNKKYKLKIGDKVQFTVPDPV | 0.113
12 | HMHDYTTIIGVIELRLNKISYDNVQKRYRIGRSGISLIMERYRDSGLSLDDLKQMPAEKVVNLIYPKD | -0.954
13 | HMETTVSYSGVVTASVLRIRKGPSVSSSVAGTLKKGTGVSIIFEDNGWGKLADGSGWVSLTYIKKNSTP | -0.302
14 | HMDPDDEILINIMTKLLTEKQIIIKNKEIFNFLLKRINRTYEEVYNLINKMDKLSLEKKKQLTIPSIKEL | -1.21
15 | HMLPDVSITGHIFIRSGSRLNRIFVGESTYHVGDMLDGKWLIESINSDSLELRSGTQTTELPL | -2.58
16 | HMGTIRAPMPGTILKINVVDGDSVTKGDVLLILESMKMENSITSPKTGSVTSVYVSEGDPVQHGETLIDL | -0.147
17 | HMSTQVPDVKERSQEEARSILESAGFKVTPAVKTEDSADIAKDMVTKTDPAAGQSVPKGTTITIYVSS | 0.149
18 | HMKTILEKDQRLAKYISYLIKRKRLSPEQVIEHLKTDDHGYEKYPKSINTIYAAIDKGLIPSVTRQDM | -0.0163
19 | HMRRARVAGKGHFTGEDAMAVYRELEALFGETETLYLPGHRPFEAVLSKLALIGVPEKNTVPYTFAFVET | -0.433

Row | Sequence | soluble fraction (log2)
20 | HMAPLRTQYVNVNYANAAEIKTLISGADKEVGSLLSERGSVVVDKRTNTLIIQDTQARLNDIGDLIEQLD | -0.0505
21 | HMKAILHQESRSGFANATVIGGLDKFLDTNWNQLSKYIKKIETPYSDRSLEDRKIWISTILGILSTEI | 0.45
22 | HMIDVNLVQRGKTLHLRRRVPMRYSSVERREYVSISLKTDSEAEARRKAGAAWDQMIAAWEARLA | -0.35
23 | HMPEMAIRTLRLRNQRGAAVAAEWSRITASLLELRQVEFVNPVDQLIVLKGPEPWAGVAEELVRQLDV | -0.849
24 | HMTYSSESVRYRIKSLIDNETIDEILSDDKIVNILKSQGIDVARRTVAKYREAMGLASSIQRRREKKSA | -0.375
25 | HMQAKNGTVTGSVVNVRGGAGTQYAVKGKASRGTKVTILGQQSSWLNVRLDNGVTGWIHADYVQISE | 0.463
26 | HMAAFGDLLSELRRDMNMTQDELAKVLFVSPGTISNYENNIHFPDVPKLKQIAQYFGVTTDYLLG | -0.405
27 | HMKNTYTVVSGDTLWGIASRKLGGGSNWTKIYDANAATIESVANRRRGGRGSDHGHWIYPGTVLTI | -0.0158
28 | HMVQQTEEDVIRDMYVEGKIFTIGEEVTDTYTGVTGKIIRRGTNYVTFMSEDGETYKKWLYEIELA | -1
29 | HMNTVAKELATQATQAKKRAFLDAYAETGIIKRAAEIAGIERKSHYLWLEKDPEYVEAFKSAGEQ | 0.301
30 | HMTRKQTIYEFLRRMKSQHGLDAVYSTEEIANAVGVSRANVSSDLNRLFEEQLVEKLPGWPVKYRA | 0.0186
31 | HMNNLTEEAINHLVLEVKNVLLTDALFLGKATDSQLMLRIKETIDQRNGQYNIGMNDRERIARRVFARLR | -0.189
32 | HMTPTITNALEEAEKAVSEVQEGKKEIELTPQGAYIRHLQHAIADRYGISSTSTGRDPKRKVIIY | -0.108
33 | HMGEEIRTWTDAQGRKIEARMSMLDGDQVLLELKDGRKIPYPLAKLSADDAHYARHFASASASD | 0.0254
34 | HMPSEAVQNIIGNVKSKRRVATIGQARGLASNVIKEGKFDNVSNTAMVNRLIDLGIISNSIGYQ | 0.115
35 | HMEFDIDAAIHAALEPQAVMRAWFGHEGREYPEDFGVVFFRGWESFTHQEKVEAVRDAKKVLDRAVR | -0.516
36 | HMKKMSFKEAFLKYVEIKDNPYNMESVKMLVSLQPLIVKAYSILGVDKVRRLNYVKTKIQDAIINGD | -1.9
37 | HMLNLNILTDKEKFIAKLISRGLSDSLIAKELYISISTVRSHVNSIYGKTNIKNRSHLASSFLYFELGNLL | -0.135
38 | HMKSVFQPIYEDLLSRIQDGRLLPGMPLPSENALAVQYGTSRPTIRRAIGLLVEKSLVIRQPGIGSIVAS | -1.17
